Experimental data from paper PMC3234234, “A Host Small GTP-binding Protein ARL8 Plays Crucial Roles in Tobamovirus RNA Replication” (PLoS Pathogens, 2011).

T1: AtTOM1-Cub-PLV (split-ubiquitin bait) (Arabidopsis thaliana, UniProt Q9FEG2 1-291)
T1 construct: Arabidopsis thaliana TOM1, seven-pass transmembrane protein; source: yeast two-hybrid fusion (split-ubiquitin, reporter strain L40); not shown: Cub-PLV, C-terminal, kept
T1 sequence (looked up): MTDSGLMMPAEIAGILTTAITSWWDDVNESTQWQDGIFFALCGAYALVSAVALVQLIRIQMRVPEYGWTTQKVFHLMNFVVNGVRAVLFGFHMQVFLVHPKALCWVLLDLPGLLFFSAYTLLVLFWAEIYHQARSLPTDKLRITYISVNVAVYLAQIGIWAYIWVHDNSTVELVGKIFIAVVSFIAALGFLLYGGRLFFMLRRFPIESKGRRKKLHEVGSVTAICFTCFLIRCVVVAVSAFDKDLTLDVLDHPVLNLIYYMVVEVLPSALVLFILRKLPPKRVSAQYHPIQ

B1: AtARL8a-NubG (split-ubiquitin prey) (natural protein, Arabidopsis thaliana, UniProt Q8VY57 1-184, looked up)
chain: MGLLEAFLNWLRSLFFKQEMELSLIGLQNAGKTSLVNVVATGGYSEDMIPTVGFNMRKVTKGNVTIKLWDLGGQPRFRSMWERYCRAVSAIVYVVDAADPDNLSVSKSELHDLLSKTSLNGIPLLVLGNKIDKPGALSKEALTDEMGLTSLTDREVCCFMISCKNSTNIDQVIDWLVKHSKSKN
notes: Arabidopsis thaliana ARL8a; 'a DNA fragment corresponding to the AtARL8a-coding region' put in place of TOM1 in pTN-TOM1-NubG; also called ARL8-NubG; source: yeast two-hybrid fusion (split-ubiquitin, reporter strain L40); not shown: NubG, C-terminal, kept

How the values were obtained:
[1] = biological target: AtARL8a-Cub-PLV (split-ubiquitin bait) (Arabidopsis thaliana) (UniProt Q8VY57); experiment: two-hybrid; split-ubiquitin assay in yeast reporter strain L40; Cub-PLV fusion as bait, NubG fusion as prey; beta-galactosidase activity (Miller units)
[2] = biological target: T1, AtTOM1-Cub-PLV (split-ubiquitin bait); experiment: as above; conditions: partners not purified

| Molecule | fold weaker signal (beta-galactosidase) than the TOM1-helicase domain pair [1] [times weaker] | fold weaker signal (beta-galactosidase) than the TOM1-helicase domain pair [2] [times weaker] |
| --- | --- | --- |
| NubG-HEL: helicase domain polypeptide of ToMV replication proteins (residues 648-1116 of the 130K protein) (domain or fragment) | 13 | – |
| B1 | – | 6 |
